Experimental data taken from patent US12544447B2, “Nuclease-dendrimer formulations for Covid-19 and broad-spectrum antiviral therapy and prophylaxis” (priority 2020, dated 2026).
Read-outs that look alike come from different tables or passages of the source.

B1: ranpiRNase: ribonuclease enzyme found in the oocytes of the northern leopard frog (rana pipiens) (protein, UniProt P22069 1-104, looked up)
Protein P-30: QDWLTFQKKHITNTRDVDCDNIMSTNLFHCKDKNTFIYSRPEPVKAICKGIIASKNVLTTSEFYLSDCNVTSRPCKYKLKKSTNKFCVTCENQAPVHFVGVGSC
B2: mildly cationized RNase: bovine pancreatic RNase A carboxyl groups amidated with ethylenediamine using 10 mg EDC; mixture of diversely modified proteins (protein, UniProt P61823 27-150, looked up)
Ribonuclease pancreatic: KETAAAKFERQHMDSSTSAASSSNYCNQMMKSRNLTKDRCKPVNTFVHESLADVQAVCSQKNVACKNGQTNCYQSYSTMSITDCRETGSSKYPNCAYKTTQANKHIIVACEGNPYVPVHFDASV
modifications: carboxyls amidated with ethylenediamine, mildly cationized
notes: bovine pancreatic RNase A carboxyl groups amidated with ethylenediamine using 10 mg EDC; mixture of diversely modified proteins
B3: highly cationized RNase: bovine pancreatic RNase A carboxyl groups amidated with ethylenediamine using EDC 80+80+40 mg; mixture of diversely modified proteins (protein, UniProt P61823 27-150, looked up)
Ribonuclease pancreatic: B2 Ribonuclease pancreatic
modifications: carboxyls amidated with ethylenediamine, highly cationized
notes: bovine pancreatic RNase A carboxyl groups amidated with ethylenediamine using EDC 80+80+40 mg; mixture of diversely modified proteins

Key:
[1] = cited from earlier work
[2] = test system: HIV; conditions: published research; cited from earlier work
[3] = test system: HCoV-OC43 virus; format: cell-based; conditions: OC43, HEK293T
[4] = test system: HEK293T cells; assay: Cytotoxicity of cationized RNase using HEK293T cells; format: cell-based, human
Experimental: In this example, initially, the cytotoxicity of cationized RNase using HEK293T cells is tested. Next, the highest dose with more than 80% surviving cells is selected for an anti-viral test of a co-treatment of RNase/DNase complexed with a highly cationic molecule dendrimer (the generation 2 poly PAMAM dendrimer described above) to enhance the efficacy of ribonucleases as anti-virus (HCoV-NL63/OC43) agents.
In this set of exemplar experiments, the same methodology, including the cellular compositions, viral samples, and RNase/DNase formulations from Example 1 are utilized in the various experimental combinations shown in FIG. 21.

[5] = Aggregate net charge estimated from published data; format: physicochemical; conditions: calculated estimates from published data
Excerpt: To determine the resulting aggregate net charge of each mixture (mildly or highly) cationized RNase A may be fractionated according to net charge by cation-exchange chromatography. Based upon calculated estimates from published data, the aggregate net charge of the mildly cationized RNase obtained from the above methodology is approximately +11 to +13 and the aggregate net charge of the highly cationized RNase obtained from the above methodology is approximately +21 to +23.

[6] = test system: OC43 virus; assay: RT-qPCR of cell culture medium for OC43 virus; conditions: RNase 10 μg/mL, dendrimer 10 μM where present
Experimental: To conduct the RT-qPCR testing, cell culture medium was collected at 3 and 5 days after virus infection with or without mild RNase plus dendrimer treatment for RT-qPCR test. RNA from the infection virus were used for reverse transcriptase (RT) to direct complimentary DNA (cDNA) synthesis. The resulting cDNA was used as templates for the RT-qPCR reaction with a SYBR RT-PCR Kit. Reaction conditions were: 30 minutes RT at 50° C., 15 minutes at 94° C. for inactivation of reverse transcriptase (RT), followed by 40 cycles of 95° C. for 15 seconds, 60° C. for 45 seconds. Finally, conditions of 65° C. for 5 seconds and 95° C. for 5 seconds were used.
Melting curve analysis was performed under the condition of 95° C. for 60 seconds, 40° C. for 60 seconds, 65° C. for 1 second, followed by a slow increase from 65° C. to 95° C. at a rate of 0.07° C. per second.
Note that the limit for this PCR reaction is between 10-100 particles, which is sufficient to detect if a well is infected or has virus present.

Molecule	maximum tolerated dose (MTD) ([1]; intravenously weekly, patients with malignant mesothelioma) [mg/m2]	maximum tolerated dose (MTD) ([1]; of skin area, phase one clinical study) [μg/m^2]	antiviral effect on HIV [2]	effective reduction compared to the control group (TCID50) ([3]; 7.5 μg/ml) [×]	concentration with survival of 80% of the control cells ([4]; FIG. 22) [µg/mL]	aggregate net charge [5]	virus detection in medium by RT-qPCR after 3 days ([6]; 3 days)	virus detection in medium by RT-qPCR after 5 days ([6]; 5 days)	effective reduction compared to the control group (TCID50) ([3]; highly cationized formulation)	concentration with 80% survival of control cells, interpolated ([4]; interpolation of experimental results) [µg/mL]
B1	960	960	shown antiviral activity against HIV	–	–	–	–	–	–	–
B2	–	–	–	6.8	10	+11 to +13	detected	detected	–	–
B3	–	–	–	–	–	+21 to +23	–	–	negligible	0.2 to 0.5
